Common to all, as to assay: cleavage_in_vitro
Series [1] has as its system OMNI-XL-18 (unidentified metagenomic bacterium). Particulars: TXTL; PAM NGYCCNNN
Series [2] has as its system OMNI-XL-19 (unidentified metagenomic bacterium). Particulars: TXTL; PAM NRGNRCNN
For series [3], the system named is OMNI-XL-12 (unidentified metagenomic bacterium). The following applies: TXTL; PAM relaxed NRNNCCNN, strict NRTNCCRN
The subject of series [4] is OMNI-XL-16 (unidentified metagenomic bacterium). Particulars: TXTL; PAM NARNACVN

OMNI-XL-12 (unidentified metagenomic bacterium), sequence (chain, as listed by the source): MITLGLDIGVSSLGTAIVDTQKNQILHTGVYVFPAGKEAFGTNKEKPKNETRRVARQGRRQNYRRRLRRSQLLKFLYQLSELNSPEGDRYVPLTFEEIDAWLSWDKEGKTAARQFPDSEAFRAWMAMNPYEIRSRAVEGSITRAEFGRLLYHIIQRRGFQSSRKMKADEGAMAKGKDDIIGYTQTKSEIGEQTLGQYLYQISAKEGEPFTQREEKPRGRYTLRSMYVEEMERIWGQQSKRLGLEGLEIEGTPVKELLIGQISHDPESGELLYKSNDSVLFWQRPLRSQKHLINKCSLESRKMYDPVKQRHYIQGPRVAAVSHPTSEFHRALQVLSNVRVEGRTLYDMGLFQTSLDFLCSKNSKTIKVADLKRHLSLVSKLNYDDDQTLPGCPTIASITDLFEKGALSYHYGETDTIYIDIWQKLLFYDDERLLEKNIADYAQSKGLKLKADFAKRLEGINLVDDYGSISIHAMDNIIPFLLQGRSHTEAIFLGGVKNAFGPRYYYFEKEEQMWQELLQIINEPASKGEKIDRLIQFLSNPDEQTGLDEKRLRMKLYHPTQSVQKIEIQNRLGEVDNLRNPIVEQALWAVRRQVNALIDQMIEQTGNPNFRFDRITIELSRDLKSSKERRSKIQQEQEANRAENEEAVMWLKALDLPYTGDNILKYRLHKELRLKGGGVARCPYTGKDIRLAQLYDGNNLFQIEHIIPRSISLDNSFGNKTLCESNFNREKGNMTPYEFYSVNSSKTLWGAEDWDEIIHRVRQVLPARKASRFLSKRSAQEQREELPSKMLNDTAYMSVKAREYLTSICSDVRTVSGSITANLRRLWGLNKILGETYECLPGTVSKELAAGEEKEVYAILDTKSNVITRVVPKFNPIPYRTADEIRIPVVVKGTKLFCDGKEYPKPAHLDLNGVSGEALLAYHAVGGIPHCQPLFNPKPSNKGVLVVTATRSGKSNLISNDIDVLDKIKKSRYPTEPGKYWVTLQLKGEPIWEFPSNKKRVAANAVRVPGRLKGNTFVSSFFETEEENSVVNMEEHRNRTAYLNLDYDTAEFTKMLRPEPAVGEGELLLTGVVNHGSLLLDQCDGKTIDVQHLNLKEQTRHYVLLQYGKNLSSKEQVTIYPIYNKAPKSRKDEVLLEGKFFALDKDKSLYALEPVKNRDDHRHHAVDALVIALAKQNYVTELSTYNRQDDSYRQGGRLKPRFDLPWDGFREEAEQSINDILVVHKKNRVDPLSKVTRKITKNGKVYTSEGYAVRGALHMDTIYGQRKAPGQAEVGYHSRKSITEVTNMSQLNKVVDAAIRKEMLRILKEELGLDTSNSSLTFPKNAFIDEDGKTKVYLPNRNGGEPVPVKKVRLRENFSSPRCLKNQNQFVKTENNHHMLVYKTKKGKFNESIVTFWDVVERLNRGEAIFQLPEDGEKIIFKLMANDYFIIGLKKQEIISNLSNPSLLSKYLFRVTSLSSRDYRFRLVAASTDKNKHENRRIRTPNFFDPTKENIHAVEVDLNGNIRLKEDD
OMNI-XL-18 (unidentified metagenomic bacterium), sequence (chain, as listed by the source): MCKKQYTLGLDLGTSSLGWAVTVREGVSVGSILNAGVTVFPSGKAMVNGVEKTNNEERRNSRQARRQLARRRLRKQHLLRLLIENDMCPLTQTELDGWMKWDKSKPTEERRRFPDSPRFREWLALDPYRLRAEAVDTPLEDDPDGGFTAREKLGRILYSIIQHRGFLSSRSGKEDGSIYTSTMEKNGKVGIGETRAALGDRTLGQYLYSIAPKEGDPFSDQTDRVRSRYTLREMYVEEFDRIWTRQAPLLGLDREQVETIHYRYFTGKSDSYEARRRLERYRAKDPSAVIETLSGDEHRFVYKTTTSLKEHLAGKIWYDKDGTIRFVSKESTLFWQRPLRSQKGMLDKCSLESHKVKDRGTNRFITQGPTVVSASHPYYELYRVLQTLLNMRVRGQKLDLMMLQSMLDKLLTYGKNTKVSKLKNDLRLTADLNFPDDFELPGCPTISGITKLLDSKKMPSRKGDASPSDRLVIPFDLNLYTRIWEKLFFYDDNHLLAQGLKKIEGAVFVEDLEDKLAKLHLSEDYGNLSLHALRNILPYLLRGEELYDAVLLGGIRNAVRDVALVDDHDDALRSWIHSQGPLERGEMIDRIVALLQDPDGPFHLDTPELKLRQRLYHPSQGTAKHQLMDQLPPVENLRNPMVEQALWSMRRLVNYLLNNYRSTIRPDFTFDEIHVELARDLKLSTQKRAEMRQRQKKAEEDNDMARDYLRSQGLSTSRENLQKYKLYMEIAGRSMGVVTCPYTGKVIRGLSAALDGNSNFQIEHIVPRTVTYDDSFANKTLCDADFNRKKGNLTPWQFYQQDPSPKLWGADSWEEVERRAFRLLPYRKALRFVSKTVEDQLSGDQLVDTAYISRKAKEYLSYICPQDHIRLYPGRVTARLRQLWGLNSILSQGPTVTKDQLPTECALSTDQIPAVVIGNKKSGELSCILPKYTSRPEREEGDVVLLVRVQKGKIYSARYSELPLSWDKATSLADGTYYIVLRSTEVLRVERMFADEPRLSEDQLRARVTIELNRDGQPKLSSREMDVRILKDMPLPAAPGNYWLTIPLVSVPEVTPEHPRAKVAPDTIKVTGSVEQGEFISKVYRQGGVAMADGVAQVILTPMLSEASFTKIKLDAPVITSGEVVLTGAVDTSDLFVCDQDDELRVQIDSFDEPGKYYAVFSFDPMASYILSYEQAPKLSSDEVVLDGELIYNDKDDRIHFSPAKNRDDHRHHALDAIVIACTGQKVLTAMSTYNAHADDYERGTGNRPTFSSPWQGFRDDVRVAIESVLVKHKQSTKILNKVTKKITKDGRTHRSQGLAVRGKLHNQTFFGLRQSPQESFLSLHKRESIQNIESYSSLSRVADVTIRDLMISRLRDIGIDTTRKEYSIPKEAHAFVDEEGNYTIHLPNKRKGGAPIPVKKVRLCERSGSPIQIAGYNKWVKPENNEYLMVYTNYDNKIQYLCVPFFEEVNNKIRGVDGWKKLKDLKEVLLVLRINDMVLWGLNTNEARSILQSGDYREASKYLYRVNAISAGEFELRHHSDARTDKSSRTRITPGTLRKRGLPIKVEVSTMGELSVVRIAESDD
OMNI-XL-16 (unidentified metagenomic bacterium), sequence (chain, as listed by the source): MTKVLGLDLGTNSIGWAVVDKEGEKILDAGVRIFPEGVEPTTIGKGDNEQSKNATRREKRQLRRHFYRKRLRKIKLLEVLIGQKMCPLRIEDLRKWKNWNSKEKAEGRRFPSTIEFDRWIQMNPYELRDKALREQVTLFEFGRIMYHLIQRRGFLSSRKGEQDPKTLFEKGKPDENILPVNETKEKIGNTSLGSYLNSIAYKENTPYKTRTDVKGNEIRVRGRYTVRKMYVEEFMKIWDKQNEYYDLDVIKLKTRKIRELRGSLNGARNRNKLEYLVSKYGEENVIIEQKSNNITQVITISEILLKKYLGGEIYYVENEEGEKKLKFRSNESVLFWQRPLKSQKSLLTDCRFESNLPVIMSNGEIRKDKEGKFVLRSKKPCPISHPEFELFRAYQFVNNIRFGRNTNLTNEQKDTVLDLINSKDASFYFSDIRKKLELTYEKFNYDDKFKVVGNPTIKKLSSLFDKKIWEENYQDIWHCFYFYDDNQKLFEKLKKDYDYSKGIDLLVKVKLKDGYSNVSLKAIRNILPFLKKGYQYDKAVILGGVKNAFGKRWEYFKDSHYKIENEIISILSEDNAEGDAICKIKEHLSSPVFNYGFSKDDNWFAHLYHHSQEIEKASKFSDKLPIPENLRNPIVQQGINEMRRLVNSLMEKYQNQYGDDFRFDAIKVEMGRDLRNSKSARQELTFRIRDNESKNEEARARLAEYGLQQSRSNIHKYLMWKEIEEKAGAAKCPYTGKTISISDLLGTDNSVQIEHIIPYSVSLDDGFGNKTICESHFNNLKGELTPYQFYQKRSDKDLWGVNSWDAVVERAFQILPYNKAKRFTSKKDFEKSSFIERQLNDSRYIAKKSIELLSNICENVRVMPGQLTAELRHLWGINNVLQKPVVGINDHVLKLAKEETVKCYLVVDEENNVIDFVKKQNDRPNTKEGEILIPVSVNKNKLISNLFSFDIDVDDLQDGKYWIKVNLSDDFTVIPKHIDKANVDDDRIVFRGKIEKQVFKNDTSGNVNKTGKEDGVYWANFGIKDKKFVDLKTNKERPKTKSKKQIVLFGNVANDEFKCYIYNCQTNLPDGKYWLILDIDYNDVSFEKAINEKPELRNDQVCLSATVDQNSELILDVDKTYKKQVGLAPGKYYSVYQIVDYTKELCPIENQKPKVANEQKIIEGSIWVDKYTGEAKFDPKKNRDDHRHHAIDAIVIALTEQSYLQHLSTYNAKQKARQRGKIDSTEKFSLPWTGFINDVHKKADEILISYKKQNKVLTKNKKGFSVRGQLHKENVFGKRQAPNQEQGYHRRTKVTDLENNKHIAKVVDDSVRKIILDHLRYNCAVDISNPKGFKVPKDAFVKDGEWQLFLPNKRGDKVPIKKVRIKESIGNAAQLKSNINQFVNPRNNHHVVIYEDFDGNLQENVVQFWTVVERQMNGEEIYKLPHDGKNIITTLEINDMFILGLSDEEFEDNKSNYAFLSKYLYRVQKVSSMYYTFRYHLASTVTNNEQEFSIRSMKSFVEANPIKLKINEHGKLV

“GGAAGAGCAGAGCCUUGGUCUCGUUGUGGAUUGAUCAGUUUGAAAAAACGAUCUCUUCACAACAAGGCUAUAUGCCGUAGUUGAUUCUACGCUCCCGCUUCGGCGGGAGCUUUUUUU / GGAAGAGCAGAGCCTTGGTCTCNNNNNNNN / NNNNNNNNGAGACCAAGGCTCTGCTCTTCC [OMNI-XL-18 sgRNA V2 T2 ; T2 protospacer 8N PAM library]” came in with an activity (1-depletion score) in series [1] of 0.98.
The same measure, in the same setting: for “GGAAGAGCAGAGCCUUGGUCUCGUUGUGGAUUGAUCAGUUUGAAAAAACGAUCUUUUCACAACAAGGCUAUAUGCCGUAGUUGAUUCUACGCUCCCGCUUCGGCGGGAGCUUUUUUU / GGAAGAGCAGAGCCTTGGTCTCNNNNNNNN / NNNNNNNNGAGACCAAGGCTCTGCTCTTCC [OMNI-XL-18 sgRNA V1 T2 ; T2 protospacer 8N PAM library]” the value was 0.97.
In series [2], “GGAAGAGCAGAGCCUUGGUCUCGUUGUGGAUUGAUCAGUUUGAAAAAACGAUCUUUUCACAACAAGGCUAUAUGCCGUAGUUGAUUCUACGCUCCCGCUUCGGCGGGAGCUUUUUUUU / GGAAGAGCAGAGCCTTGGTCTCNNNNNNNN / NNNNNNNNGAGACCAAGGCTCTGCTCTTCC [OMNI-XL-19 sgRNA V1 T2 ; T2 protospacer 8N PAM library]” showed an activity (1-depletion score) of 0.94.
Consider “GGAAGAGCAGAGCCUUGGUCUCGUUGUGGAUUGAUUACUUUGAAAAAAGUAAUCUCUUCAUAACAAGGCUAUAUGCCGAAGUUAUUACGGCUCCACUUCGGUGGAGCCUUUUUU / GGAAGAGCAGAGCCTTGGTCTCNNNNNNNN / NNNNNNNNGAGACCAAGGCTCTGCTCTTCC [OMNI-XL-12 sgRNA V2 T2 ; T2 protospacer 8N PAM library]”, for which the activity (1-depletion score) in series [3] stood at 0.97.
The same measure, in the same setting: for “GGAAGAGCAGAGCCUUGGUCUCGUUGUGGAUUGAUUACUUUGAAAAAAGUAAUCUUUUCAUAACAAGGCUAUAUGCCGAAGUUAUUACGGCUCCACUUCGGUGGAGCCUUUUUU / GGAAGAGCAGAGCCTTGGTCTCNNNNNNNN / NNNNNNNNGAGACCAAGGCTCTGCTCTTCC [OMNI-XL-12 sgRNA V1 T2 ; T2 protospacer 8N PAM library]” the value was 0.98.
For “GGAAGAGCAGAGCCUUGGUCUCGUUGUGGUUUGAUGUAAUUGAAAAAAUUACAUCUUAUCACAAUAAGGCUAUAUGCCGAAGGAUAAAAUGUCCUAUACUCCUGCUUCGGUAGGAGUUUUUUU / GGAAGAGCAGAGCCTTGGTCTCNNNNNNNN / NNNNNNNNGAGACCAAGGCTCTGCTCTTCC [OMNI-XL-16 sgRNA V1 T2 ; T2 protospacer 8N PAM library]”, the activity (1-depletion score) in series [4] is 0.64.

(Values after patent US20260218174.)
